# Measured values: patent US20250333496A1 (Novo Nordisk, published 2025)
# Numbering of substitutions follows the chain as printed. Several values for one entry are separate records, joined by “and”; a condition that tells them apart may be missing. Equal entries are not always repeated.
# B1: Polypeptide_3 (VHH)
# VHH: QVQLQESGGGLVQAGGSLRLSCTTSGRTFSSYAMGWFRQAPGKEREFVADIGENADNRWYAHSVKGRFTISRDNAKNTVYLQMNSLKPEDTAVYYCAADRYGVGGGAQGYYDSWGQGTQVTVSS
# notes: VHH_2.3 with C-terminal His tag extension E1; also called [VHH_2.3]-E1
# B2: Polypeptide_54 (VHH)
# VHH: EVQLVESGGGLVQPGGSLKLSCTTSGRRFSEYAVGWFRQAPGKEREFVADIGENAENTWYAESVLGRFTISRDDAKNTVYLEMDGLKPEDTAVYYCAADKYGVGGNAQGYYDSWGQGTQVTVSS
# B3: Polypeptide_58 (VHH)
# VHH: B2 VHH with N54Q, D74N
# B4: Polypeptide_49 (VHH)
# VHH: B2 VHH with E1Q, N54Q
# B5: Polypeptide_50 (VHH)
# VHH: B2 VHH with V2L, N54Q
# B6: Polypeptide_53 (VHH)
# VHH: B2 VHH with E31S, N54Q
# B7: Polypeptide_56 (VHH)
# VHH: B2 VHH with N54Q, E62H
# B8: Polypeptide_62 (VHH)
# VHH: B2 VHH with N54Q, N106G
# B9: Polypeptide_60 (VHH)
# VHH: B2 VHH with N54Q, G85S
# B10: Polypeptide_51 (VHH)
# VHH: B2 VHH with L11W, N54Q
# B11: Polypeptide_57 (VHH)
# VHH: B2 VHH with N54Q, L65K
# B12: Polypeptide_52 (VHH)
# VHH: B2 VHH with R28T, N54Q
# B13: Polypeptide_55 (VHH)
# VHH: B2 VHH with N54Q, E56D
# B14: Polypeptide_59 (VHH)
# VHH: B2 VHH with N54Q, D84N
# B15: Polypeptide_61 (VHH)
# VHH: B2 VHH with N54Q, K100S
# B16: Compound 2 (VHH)
# VHH: EVQLVESGGGLVQAGGSLQLSCTASGGTFSEYAMAWFRQAPGQEREFVTDIGESGGTWYADSVKGRFTISRDNAKNTVYLQMDSLRPEDTAVYYCAADSYGVGGGAERYYDSWGQGTQVTVSS
# modifications: Chem. 24 (C16 diacid substituent) on Cys in position 4 and on Cys in position 6 of the extension (SEQ ID NO: 72)
# notes: Polypeptide derivative; extension E2 at the C-terminus of the VHH; also called VHH_1.13-E2 with 2x Chem. 24
# B17: Compound 12 (VHH)
# VHH: EVQLVESGGGLVQPGGSLQLSCAASGFTFSNYWMYWVRQAPGQGLEWVSGINTGGSTPDYADSVKGRFAISRDNAKNTLYLQMDSLRPEDTAVYYCAADTPRVFRLDHYSPLGQGTQVTVSS
# modifications: Chem. 24 (C16 diacid substituent) on Cys in position 4 and on Cys in position 6 of the extension (SEQ ID NO: 72)
# notes: Polypeptide derivative; extension E2 at the C-terminus of the VHH; also called VHH_1.17-E2 with 2x Chem. 24
# B18: Polypeptide_22 (VHH)
# VHH: B2 VHH with A40G, N54Q, E82Q, G85S
# notes: VHH_1.2 with C-terminal His tag extension E1; also called [VHH_1.2]-E1
# B19: Compound 3 (VHH)
# VHH: B2 VHH with E1Q, V2L, L11W, K19Q, K43Q, N54Q, E62H, D74E, E82Q, G85S
# modifications: Chem. 24 (C16 diacid substituent) on Cys in position 4 and on Cys in position 6 of the extension (SEQ ID NO: 72); found mass includes position 1 Gln to pyroGlu formation
# B20: Polypeptide_46 (VHH)
# VHH: B2 VHH with E1Q, V2L, L11W, K19Q, K43Q, N54Q, E62H, D74E, E82Q, G85S
# B21: Compound 6 (VHH)
# VHH: B2 VHH with K19Q, A40G, N54Q, E62H, E82Q, G85S
# modifications: Chem. 24 (C16 diacid substituent) on Cys in position 4 and on Cys in position 6 of the extension (SEQ ID NO: 72)
# notes: Polypeptide derivative; extension E2 at the C-terminus of the VHH; also called VHH_1.3-E2 with 2x Chem. 24
# B22: Compound 9 (VHH)
# VHH: B2 VHH with N54Q
# modifications: Chem. 24 (C16 diacid substituent) on Cys in position 4 and on Cys in position 6 of the extension (SEQ ID NO: 72)
# notes: Polypeptide derivative; extension E2 at the C-terminus of the VHH; also called VHH_1.6-E2 with 2x Chem. 24; Chem. 31
# B23: Compound 7 (VHH)
# VHH: B2 VHH with K19Q, R28K, S30D, E62H, E82Q, G85S
# modifications: Chem. 24 (C16 diacid substituent) on Cys in position 4 and on Cys in position 6 of the extension (SEQ ID NO: 72)
# notes: Polypeptide derivative; extension E2 at the C-terminus of the VHH; also called VHH_1.4-E2 with 2x Chem. 24
# B24: Polypeptide_47 (VHH)
# VHH: B2 VHH with E1Q, V2L, L11W, N54Q, E62H, D74E, E82Q, D84N, G85S
# notes: VHH_1.15 with C-terminal His tag extension E1; also called [VHH_1.15]-E1
# B25: Compound 8 (VHH)
# VHH: B2 VHH with K19Q, R28K, S30D, A40G, E82Q, G85S
# modifications: Chem. 24 (C16 diacid substituent) on Cys in position 4 and on Cys in position 6 of the extension (SEQ ID NO: 72)
# notes: Polypeptide derivative; extension E2 at the C-terminus of the VHH; also called VHH_1.5-E2 with 2x Chem. 24
# B26: Polypeptide_28 (VHH)
# VHH: B2 VHH with K19Q, R28K, S30D, A40G, E82Q, G85S
# notes: VHH_1.5 with C-terminal His tag extension E1; also called [VHH_1.5]-E1
# B27: Polypeptide_27 (VHH)
# VHH: B2 VHH with K19Q, R28K, S30D, E62H, E82Q, G85S
# notes: VHH_1.4 with C-terminal His tag extension E1; also called [VHH_1.4]-E1
# B28: Compound 5 (VHH)
# VHH: B2 VHH with A40G, N54Q, E82Q, G85S
# modifications: Chem. 24 (C16 diacid substituent) on Cys in position 4 and on Cys in position 6 of the extension (SEQ ID NO: 72)
# notes: Polypeptide derivative; extension E2 at the C-terminus of the VHH; also called VHH_1.2-E2 with 2x Chem. 24
# B29: Compound 4 (VHH)
# VHH: B2 VHH with L11W, K19Q, K43Q, N54Q, E62H, D74E, E82Q, G85S
# modifications: Chem. 24 (C16 diacid substituent) on Cys in position 4 and on Cys in position 6 of the extension (SEQ ID NO: 72)
# notes: Polypeptide derivative; extension E2 at the C-terminus of the VHH; also called VHH_1.1-E2 with 2x Chem. 24
# B30: Compound 10 (VHH)
# VHH: B2 VHH with K19Q, R28K, S30D, A40G, K43Q
# modifications: Chem. 24 (C16 diacid substituent) on Cys in position 4 and on Cys in position 6 of the extension (SEQ ID NO: 72)
# notes: Polypeptide derivative; extension E2 at the C-terminus of the VHH; also called VHH_1.7-E2 with 2x Chem. 24
# B31: Polypeptide_31 (VHH)
# VHH: B2 VHH with K19Q, R28K, S30D, A40G, K43Q
# notes: VHH_1.7 with C-terminal His tag extension E1; also called [VHH_1.7]-E1
# B32: Polypeptide_24 (VHH)
# VHH: B2 VHH with K19Q, A40G, N54Q, E62H, E82Q, G85S
# notes: VHH_1.3 with C-terminal His tag extension E1; also called [VHH_1.3]-E1
# B33: Compound 1 (VHH)
# VHH: B1 VHH with V2L, Q5V, L11W, A14P, R19Q, M34V, K43Q, R58T, N84D, R100S
# modifications: Chem. 24 (C16 diacid substituent) on Cys in position 4 and on Cys in position 6 of the extension (SEQ ID NO: 72)
# notes: Polypeptide derivative; extension E2 at the C-terminus of the VHH; also called VHH_1.12-E2 with 2x Chem. 24
# Biological target: T1, human IL-6 (mature hIL-6) (human, UniProt P05231 30-212)
# Experiment: cell-based or functional assay
# T1 sequence (P05231 30-212): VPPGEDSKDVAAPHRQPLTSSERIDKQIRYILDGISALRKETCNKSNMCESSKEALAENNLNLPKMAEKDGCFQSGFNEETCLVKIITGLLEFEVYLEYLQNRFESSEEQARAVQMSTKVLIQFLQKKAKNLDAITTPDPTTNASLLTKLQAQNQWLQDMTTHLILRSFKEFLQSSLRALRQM
row,Binder,Reporter gene-assay [pM]
1,B1,39.8

# Biological target: T1, human IL-6 (mature hIL-6)
# Experiment: cell-based or functional assay
# Remark: another data set of the same source
Binder,"IC50 (nM), STAT3-luc reporter gene assay [nM]",Relative IC50 to Reference Polypeptide_29 [fold]
B2,0.15,4.4
B3,0.047,1.4
B4,0.051,1.5
B5,0.049,1.4
B6,0.05,1.5
B7,0.168,4.9
B8,0.13,3.8
B9,0.057,1.7
B10,0.053,1.5
B11,0.08,2.3
B12,0.055,1.6
B13,0.278,8.1
B14,0.043,1.2
B15,0.054,1.6

# Biological target: T1, human IL-6 (mature hIL-6)
# Experiment: cell-based or functional assay
# Remark: another data set of the same source
Binder,"IC 50 (nM), reporter gene assay, 0% HSA [nM]","IC 50 (nM), reporter gene assay, 1% HSA [nM]"
B16,0.065,0.041
B17,–,0.021
B18,0.029,–
B19,0.029,0.029
B20,0.021,–
B21,0.018,0.016
B22,0.022,0.014
B23,0.025,0.019
B24,0.017,0.01
B25,0.02,0.017
B26,0.027,–
B27,0.026,–
B28,0.019,0.012
B29,0.024,0.015
B30,0.022,0.016
B31,0.023,–
B32,0.019,–
B33,0.029,0.06

# Biological target: T1, human IL-6 (mature hIL-6)
# Experiment: SPR (format not stated)
row,Binder,Kd [pM]
1,B1,872

# Biological target: T2, recombinant human HPC4-tagged IL-6 (human, UniProt P05231 30-212)
# T2 construct: captured on an anti-HPC4 antibody in SPR; also called HPC4-human IL6
# Experiment: SPR, HPC4-IL-6 captured on anti-HPC4 antibody, VHH injected, 25 C, 1:1 model
# Experimental: Binding of purified anti-IL-6 VHHs to recombinant human HPC4-tagged IL-6 (SEQ ID NO: 98) was probed by Surface Plasmon Resonance (SPR).
# IL-6 was captured at a flow rate of 10 μL/min for 30 seconds.
# Subsequently, concentration series of VHH polypeptides according to Table 33 were injected at a flow rate of 50 μL/min for 200 seconds to allow for binding to […] followed by 600 seconds running buffer (10 mM HEPES, 150 mM NaCl, 5 mM CaCl₂, 0.05% (v/v) Surfactant P20, 1 mg/mL bovine serum albumin, pH 7.4) injection allowing dissociation from IL-6. The running buffer was also used for dilution of anti-IL-6 VHHs and IL-6. Regeneration of the chip was achieved using a regeneration buffer consisting of 50 mM EDTA in running buffer without CaCl₂, 30 seconds contact time, and a 30 μL/min flow rate applied twice to the surface. The binding data were collected at 25° C. at either a Biacore instrument (Cytiva AB, Uppsala) or a Bruker SPR32 (Bruker Daltonics). Data were analysed according to a 1:1 model using either BiaEvaluation or Biacore Insight Evaluation (Cytiva AB, Uppsala) or Bruker Analyser (Bruker Daltonics).
# T2 sequence (P05231 other isoform, or with tags, fused parts or gaps limits assumed): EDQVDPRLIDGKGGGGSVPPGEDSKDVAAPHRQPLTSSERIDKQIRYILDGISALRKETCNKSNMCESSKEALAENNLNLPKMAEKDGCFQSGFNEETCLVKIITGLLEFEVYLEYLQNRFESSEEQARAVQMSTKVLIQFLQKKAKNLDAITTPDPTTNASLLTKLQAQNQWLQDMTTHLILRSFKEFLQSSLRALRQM
Binder,Kd,koff,kon
B16,52.3 pM,0.000348 s⁻¹,6.66e+06 M⁻¹ s⁻¹
B17,54.3 pM,0.000216 s⁻¹,7.36e+06 M⁻¹ s⁻¹
B18,7.21 pM,0.000147 s⁻¹,2.03e+07 M⁻¹ s⁻¹
B21,16.1 pM and 21.4 pM,7.82e-05 s⁻¹ and 9.95e-05 s⁻¹,4.94e+06 M⁻¹ s⁻¹ and 4.65e+06 M⁻¹ s⁻¹
B22,18.7 pM and 21.8 pM and 22.3 pM,8.71e-05 s⁻¹ and 0.000105 s⁻¹ and 0.000101 s⁻¹,4.66e+06 M⁻¹ s⁻¹ and 4.82e+06 M⁻¹ s⁻¹ and 4.53e+06 M⁻¹ s⁻¹
B23,25.2 pM and 33.8 pM,0.000127 s⁻¹ and 0.000154 s⁻¹,5.05e+06 M⁻¹ s⁻¹ and 4.56e+06 M⁻¹ s⁻¹
B24,–,0.00014 s⁻¹ and 0.000208 s⁻¹ and 0.000137 s⁻¹,2.59e+07 M⁻¹ s⁻¹ and 1.05e+07 M⁻¹ s⁻¹ and 2.03e+07 M⁻¹ s⁻¹
B25,22.1 pM and 29.6 pM,0.000101 s⁻¹ and 0.000123 s⁻¹,4.58e+06 M⁻¹ s⁻¹ and 4.16e+06 M⁻¹ s⁻¹
B26,5.08 pM,0.00013 s⁻¹,2.56e+07 M⁻¹ s⁻¹
B27,7.55 pM,0.000163 s⁻¹,2.16e+07 M⁻¹ s⁻¹
B28,15.9 pM and 21.4 pM,7.82e-05 s⁻¹ and 9.95e-05 s⁻¹,4.94e+06 M⁻¹ s⁻¹ and 4.65e+06 M⁻¹ s⁻¹
B29,14.2 pM and 19.1 pM,6.98e-05 s⁻¹ and 9.08e-05 s⁻¹,4.9e+06 M⁻¹ s⁻¹ and 4.75e+06 M⁻¹ s⁻¹
B30,19.1 pM and 20.8 pM,0.000108 s⁻¹ and 9.33e-05 s⁻¹,4.48e+06 M⁻¹ s⁻¹ and 5.68e+06 M⁻¹ s⁻¹
B31,17.5 pM,0.000154 s⁻¹,8.82e+06 M⁻¹ s⁻¹
B32,3.21 pM,0.000132 s⁻¹,4.12e+07 M⁻¹ s⁻¹
B33,63.7 pM and 45.4 pM,0.000364 s⁻¹ and 0.000371 s⁻¹,5.67e+06 M⁻¹ s⁻¹ and 8.18e+06 M⁻¹ s⁻¹
